{"source": "patent US20230002480A1", "key": {"[1]": {"biological_target": "HIV-1 93TH057 gp120 coree (HIV-1)", "experiment": "PDB 3ngb structure, PISA interface"}, "[2]": {"biological_target": "HIV-1 Env of pseudovirus 191955_A11 (clade A, T/F) (HIV-1)", "experiment": "cell-based or functional assay"}, "[3]": {"biological_target": "HIV-1 Env of pseudovirus 3016.v5.c45 (clade D) (HIV-1)", "experiment": "cell-based or functional assay"}, "[4]": {"biological_target": "HIV-1 Env of pseudovirus 3103.v3.c10 (clade ACD) (HIV-1)", "experiment": "cell-based or functional assay"}, "[5]": {"biological_target": "HIV-1 Env of pseudovirus 620345.c01 (clade CRF01_AE) (HIV-1)", "experiment": "cell-based or functional assay"}, "[6]": {"biological_target": "HIV-1 Env of pseudovirus 62357_14_D3_4589 (clade B, T/F) (HIV-1)", "experiment": "cell-based or functional assay"}, "[7]": {"biological_target": "HIV-1 Env of pseudovirus 6545.v4.c1 (HIV-1)", "experiment": "cell-based or functional assay"}, "[8]": {"biological_target": "HIV-1 Env of pseudovirus 6952.v1.c20 (clade CD) (HIV-1)", "experiment": "cell-based or functional assay"}, "[9]": {"biological_target": "HIV-1 Env of pseudovirus AC10.0.29 (clade B) (HIV-1)", "experiment": "cell-based or functional assay"}, "[10]": {"biological_target": "HIV-1 Env of pseudovirus BJOX028000.10.3 (clade CRF01_AE, T/F) (HIV-1)", "experiment": "cell-based or functional assay"}, "[11]": {"biological_target": "HIV-1 Env of pseudovirus CAP210.2.00.E8 (clade C) (HIV-1)", "experiment": "cell-based or functional assay"}, "[12]": {"biological_target": "HIV-1 Env of pseudovirus CNE20 (clade BC) (HIV-1)", "experiment": "cell-based or functional assay"}, "[13]": {"biological_target": "HIV-1 Env of pseudovirus Ce1086_B2 (clade C, T/F) (HIV-1)", "experiment": "cell-based or functional assay"}, "[14]": {"biological_target": "HIV-1 Env of pseudovirus Ce1172_H1 (clade C, T/F) (HIV-1)", "experiment": "cell-based or functional assay"}, "[15]": {"biological_target": "HIV-1 Env of pseudovirus Du172.17 (clade C) (HIV-1)", "experiment": "cell-based or functional assay"}, "[16]": {"biological_target": "HIV-1 Env of pseudovirus Du422.1 (clade C) (HIV-1)", "experiment": "cell-based or functional assay"}, "[17]": {"biological_target": "HIV-1 Env of pseudovirus PVO.4 (clade B) (HIV-1)", "experiment": "cell-based or functional assay"}, "[18]": {"biological_target": "HIV-1 Env of pseudovirus Q259.d2.17 (clade A) (HIV-1)", "experiment": "cell-based or functional assay"}, "[19]": {"biological_target": "HIV-1 Env of pseudovirus R1166.c01 (clade CRF01_AE) (HIV-1)", "experiment": "cell-based or functional assay"}, "[20]": {"biological_target": "HIV-1 Env of pseudovirus T250-4 (clade CRF02_AG) (HIV-1)", "experiment": "cell-based or functional assay"}, "[21]": {"biological_target": "HIV-1 Env of pseudovirus X1254_c3 (clade G) (HIV-1)", "experiment": "cell-based or functional assay"}, "[22]": {"biological_target": "HIV-1 Env of pseudovirus X2088_c9 (clade G) (HIV-1)", "experiment": "cell-based or functional assay"}, "[23]": {"biological_target": "MuLV Env pseudovirus (negative control) (MuLV)", "experiment": "cell-based or functional assay"}, "[24]": {"biological_target": "monomeric HIV-1 Ba-L gp120 (HIV-1 Ba-L)", "experiment": "retention on gp120 affinity column"}}}
{"substance": "VRC01 Fab", "values": [{"measurement": "Ratio of OD/ID buried surface area", "setting": "[1]", "value": 9.68}, {"measurement": "buried surface area, CDR H1", "setting": "[1]", "value": 3, "unit": "Å^2"}, {"measurement": "buried surface area, CDR H2", "setting": "[1]", "value": 598, "unit": "Å^2"}, {"measurement": "buried surface area, CDR L1", "setting": "[1]", "value": 50, "unit": "Å^2"}, {"measurement": "buried surface area, CDR L2", "setting": "[1]", "value": 0, "unit": "Å^2"}, {"measurement": "buried surface area, CDR L3", "setting": "[1]", "value": 132, "unit": "Å^2"}, {"measurement": "buried surface area, CDRH3", "setting": "[1]", "value": 160, "unit": "Å^2"}, {"measurement": "buried surface area, Fab heavy and light chain total", "setting": "[1]", "value": 1200, "unit": "Å^2"}, {"measurement": "buried surface area, Fab heavy chain total", "setting": "[1]", "value": 897, "unit": "Å^2"}, {"measurement": "buried surface area, Fab light chain total", "setting": "[1]", "value": 306, "unit": "Å^2"}, {"measurement": "buried surface area, gp120 CD4 binding loop of OD", "setting": "[1]", "value": 188, "unit": "Å^2"}, {"measurement": "buried surface area, gp120 Loop D of OD", "setting": "[1]", "value": 322, "unit": "Å^2"}, {"measurement": "buried surface area, gp120 Loop V5 of OD", "setting": "[1]", "value": 301, "unit": "Å^2"}, {"measurement": "buried surface area, gp120 inner domain (ID)", "setting": "[1]", "value": 107, "unit": "Å^2"}, {"measurement": "buried surface area, gp120 outer domain (OD)", "setting": "[1]", "value": 1040, "unit": "Å^2"}, {"measurement": "buried surface area, gp120 total", "setting": "[1]", "value": 1140, "unit": "Å^2"}, {"measurement": "buried surface area, heavy chain FWR", "setting": "[1]", "value": 136, "unit": "Å^2"}, {"measurement": "buried surface area, light chain FWR", "setting": "[1]", "value": 124, "unit": "Å^2"}]}
{"substance": "N49P7-54TY (antibody)", "values": [{"measurement": "IC50, titer in TZM.bl cells", "setting": "[2]", "value": 3.04, "unit": "µg/mL"}, {"measurement": "IC80, titer in TZM.bl cells", "setting": "[2]", "value": "> 25", "unit": "µg/mL"}, {"measurement": "MPI", "setting": "[2]", "value": 72}, {"measurement": "IC50, titer in TZM.bl cells", "setting": "[3]", "value": 0.206, "unit": "µg/mL"}, {"measurement": "IC80, titer in TZM.bl cells", "setting": "[3]", "value": 1.91, "unit": "µg/mL"}, {"measurement": "MPI", "setting": "[3]", "value": 92}, {"measurement": "IC50, titer in TZM.bl cells", "setting": "[4]", "value": 0.151, "unit": "µg/mL"}, {"measurement": "IC80, titer in TZM.bl cells", "setting": "[4]", "value": 0.55, "unit": "µg/mL"}, {"measurement": "MPI", "setting": "[4]", "value": 100}, {"measurement": "IC50, titer in TZM.bl cells", "setting": "[5]", "value": "> 25", "unit": "µg/mL"}, {"measurement": "IC80, titer in TZM.bl cells", "setting": "[5]", "value": "> 25", "unit": "µg/mL"}, {"measurement": "MPI", "setting": "[5]", "value": 0}, {"measurement": "IC50, titer in TZM.bl cells", "setting": "[6]", "value": 0.055, "unit": "µg/mL"}, {"measurement": "IC80, titer in TZM.bl cells", "setting": "[6]", "value": 0.192, "unit": "µg/mL"}, {"measurement": "MPI", "setting": "[6]", "value": 100}, {"measurement": "IC50, titer in TZM.bl cells", "setting": "[7]", "value": 3.01, "unit": "µg/mL"}, {"measurement": "IC80, titer in TZM.bl cells", "setting": "[7]", "value": "> 25", "unit": "µg/mL"}, {"measurement": "MPI", "setting": "[7]", "value": 74}, {"measurement": "IC50, titer in TZM.bl cells", "setting": "[8]", "value": "> 25", "unit": "µg/mL"}, {"measurement": "IC80, titer in TZM.bl cells", "setting": "[8]", "value": "> 25", "unit": "µg/mL"}, {"measurement": "MPI", "setting": "[8]", "value": 20}, {"measurement": "IC50, titer in TZM.bl cells", "setting": "[9]", "value": "> 25", "unit": "µg/mL"}, {"measurement": "IC80, titer in TZM.bl cells", "setting": "[9]", "value": "> 25", "unit": "µg/mL"}, {"measurement": "MPI", "setting": "[9]", "value": 40}, {"measurement": "IC50, titer in TZM.bl cells", "setting": "[10]", "value": 0.009, "unit": "µg/mL"}, {"measurement": "IC80, titer in TZM.bl cells", "setting": "[10]", "value": 0.044, "unit": "µg/mL"}, {"measurement": "MPI", "setting": "[10]", "value": 100}, {"measurement": "IC50, titer in TZM.bl cells", "setting": "[11]", "value": 0.691, "unit": "µg/mL"}, {"measurement": "IC80, titer in TZM.bl cells", "setting": "[11]", "value": 3.33, "unit": "µg/mL"}, {"measurement": "MPI", "setting": "[11]", "value": 97}, {"measurement": "IC50, titer in TZM.bl cells", "setting": "[12]", "value": 0.046, "unit": "µg/mL"}, {"measurement": "IC80, titer in TZM.bl cells", "setting": "[12]", "value": 0.16, "unit": "µg/mL"}, {"measurement": "MPI", "setting": "[12]", "value": 100}, {"measurement": "IC50, titer in TZM.bl cells", "setting": "[13]", "value": 0.067, "unit": "µg/mL"}, {"measurement": "IC80, titer in TZM.bl cells", "setting": "[13]", "value": 0.339, "unit": "µg/mL"}, {"measurement": "MPI", "setting": "[13]", "value": 100}, {"measurement": "IC50, titer in TZM.bl cells", "setting": "[14]", "value": "> 25", "unit": "µg/mL"}, {"measurement": "IC80, titer in TZM.bl cells", "setting": "[14]", "value": "> 25", "unit": "µg/mL"}, {"measurement": "MPI", "setting": "[14]", "value": 23}, {"measurement": "IC50, titer in TZM.bl cells", "setting": "[15]", "value": 0.124, "unit": "µg/mL"}, {"measurement": "IC80, titer in TZM.bl cells", "setting": "[15]", "value": 0.529, "unit": "µg/mL"}, {"measurement": "MPI", "setting": "[15]", "value": 100}, {"measurement": "IC50, titer in TZM.bl cells", "setting": "[16]", "value": 0.402, "unit": "µg/mL"}, {"measurement": "IC80, titer in TZM.bl cells", "setting": "[16]", "value": 2.02, "unit": "µg/mL"}, {"measurement": "MPI", "setting": "[16]", "value": 96}, {"measurement": "IC50, titer in TZM.bl cells", "setting": "[17]", "value": 0.079, "unit": "µg/mL"}, {"measurement": "IC80, titer in TZM.bl cells", "setting": "[17]", "value": 0.314, "unit": "µg/mL"}, {"measurement": "MPI", "setting": "[17]", "value": 100}, {"measurement": "IC50, titer in TZM.bl cells", "setting": "[18]", "value": 0.132, "unit": "µg/mL"}, {"measurement": "IC80, titer in TZM.bl cells", "setting": "[18]", "value": 1.13, "unit": "µg/mL"}, {"measurement": "MPI", "setting": "[18]", "value": 95}, {"measurement": "IC50, titer in TZM.bl cells", "setting": "[19]", "value": 0.131, "unit": "µg/mL"}, {"measurement": "IC80, titer in TZM.bl cells", "setting": "[19]", "value": 0.47, "unit": "µg/mL"}, {"measurement": "MPI", "setting": "[19]", "value": 100}, {"measurement": "IC50, titer in TZM.bl cells", "setting": "[20]", "value": 1.02, "unit": "µg/mL"}, {"measurement": "IC80, titer in TZM.bl cells", "setting": "[20]", "value": 19.6, "unit": "µg/mL"}, {"measurement": "MPI", "setting": "[20]", "value": 83}, {"measurement": "IC50, titer in TZM.bl cells", "setting": "[21]", "value": 0.145, "unit": "µg/mL"}, {"measurement": "IC80, titer in TZM.bl cells", "setting": "[21]", "value": 0.599, "unit": "µg/mL"}, {"measurement": "MPI", "setting": "[21]", "value": 100}, {"measurement": "IC50, titer in TZM.bl cells", "setting": "[22]", "value": 0.172, "unit": "µg/mL"}, {"measurement": "IC80, titer in TZM.bl cells", "setting": "[22]", "value": 0.572, "unit": "µg/mL"}, {"measurement": "MPI", "setting": "[22]", "value": 100}, {"measurement": "IC50, titer in TZM.bl cells", "setting": "[23]", "value": "> 25", "unit": "µg/mL"}, {"measurement": "IC80, titer in TZM.bl cells", "setting": "[23]", "value": "> 25", "unit": "µg/mL"}, {"measurement": "MPI", "setting": "[23]", "value": 0}]}
{"substance": "Synagis (antibody)", "values": [{"measurement": "recovery from gp120 affinity column", "setting": "[24]", "value": "< 1", "unit": "%"}]}
